This passage reports binding results from article PMC9728176.

The target of the data set is T1, His6-Fur (Escherichia coli) (UniProt P0A9A9).
T1 sequence: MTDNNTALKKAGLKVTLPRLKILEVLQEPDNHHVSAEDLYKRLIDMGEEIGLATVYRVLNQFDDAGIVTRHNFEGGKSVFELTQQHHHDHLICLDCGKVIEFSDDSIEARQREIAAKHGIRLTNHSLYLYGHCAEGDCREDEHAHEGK
The data set is described as follows: EMSA. As to conditions: EMSA: 10 mM Tris-HCl pH 7.5, 50 mM KCl, 0.5 mM DTT, 0.05 mg/ml BSA, 4% glycerin, 1 mM MgCl2, 0.1 mM MnCl2, 50 ug/ml poly(dI-dC), 10 ng probe, temperature not ….

Turning to “GCGATATCACCGGTATAAGGGGCCAGCAGTTCCGCAGGGTCGAACTCTGCCAGATCTGCCAGCGCAACGAAGTTTTGCACCACCTGAATATCGCCCTGCACTTCCAGCTCACCACTGCGAATCAGTGCGGTAAGCTGCTGGCGATCGCGAAGTTTCGGCAACACACTGGCGTAGGCGATAACGGTGCA (double strand) [Biotin-PesrE (Biotin-S1V3)]”, the binding result was “binds”.
